Legend:
Type in all cases: biochemical, S. pristinaespiralis
[1] = Competition assay between the two substrates; conditions: both substrates present: 1 mM 4-amino-L-phenylalanine, 2 mM 4-methylamino-L-phenylalanine, 2 mM SAM
Procedure: The ratio of the rates of conversion of the two competitive substrates is given by the formula: V1/V2=(Kcat1/Km1)[S1]/(Kcat2/Km2)[S2]
The amount of substrate and of enzyme brought into play is thus avoided by taking care not to convert not more than 2% of each of the substrates.
Using the same conditions for assaying the methylation activity as those described in example 7-1, with the exception of the concentration of SAM, which is 2 mM, and the methyl group of which is radioactively labeled with the carbon 14 isotope (2.5 Ci/mol), and with the simultaneous presence of the two substrates at the concentrations, for 4-amino-L-phenylalanine, of 1 mM and, for 4-methylamino-L-phenylalanine, of 2 mM, the rate of each of the reactions could thus be determined.
The assays were carried out simultaneously on the mutants described in examples 4 to 6, using the same substrate solutions.

[2] = Ratios of kinetic constants and enzyme efficiencies, methylation 1 / methylation 2
Procedure: (§1) The conditions for assaying the methylation activity are identical to those described in example 7-1, with the exception of the 2 mM concentration of SAM, the methyl group of which is radioactively labeled with the carbon 14 isotope (2 Ci/mol). Concentration ranges varying from 0.1 to 60 mM for each of the substrates 4-amino-L-phenylalanine for methylation 1 and 4-methylamino-L-phenylalanine for methylation 2 are prepared. For each concentration of each substrate, the reaction rate is measured and expressed in nmol converted per hour and per mg of proteins.
(§2) The values of the kinetics constants are deduced from the Michaelis-Menten curves plotted using the Enzfiter software.
For each mutant form of the enzyme, the enzyme efficiency of each methylation reaction (methylation 1 and methylation 2) was determined. This efficiency is defined by the ratio Vm1/Km1 (methylation 1) or Vm2/Km2 (methylation 2).
Then, for each form, the ratio of the enzyme efficiencies (methylation reaction 1/methylation reaction 2) was determined. This ratio is equal to Vm1.Km2/Vm2.Km1.

[3] = Km and Vmax of purified PapM methylases, methylation 2
Procedure: (§3) The enzyme fractions to be assayed (1 to 20 units) are incubated for 30 min at 27° C. in a total volume of 200 μl of 50 mM bis-tris-propane buffer, pH 6.8, containing SAM (200 μM) the methyl group of which is radioactively labeled with the carbon 14 isotope (2 Ci/mol), in the presence of 4-amino-L-phenylalanine (1 mM) for assaying methylation 1, or of 4-methylamino-L-alanine (2.5 mM) for assaying methylation 2.
(§4) The reaction is stopped by adding 16 μl of 37% hydrochloric acid and then 20 μl of sodium heptanesulfonate at 240 g/l. After centrifugation, 150 μl of supernatant are injected into the HPLC system in the following gradient mode: • Mobile phase: Eluent A=1.2 g of heptanesulfonate+2.5 ml of glacial acetic acid+water (qs 1 000 ml). Eluent B=1.2 g of sodium heptanesulfonate+2.5 ml of glacial acetic acid+300 ml of acetonitrile+water (qs 1 000 ml). The gradient is produced in the following way: at t=0, 30% of eluent B; t=16 (min), 30% of eluent B; t=17 (min), 100% of eluent B; t=20 min, 100% of eluent B; t=21 min, 30% of eluent B; t=25 (min), 30% of eluent B. • Stationary phase: Nucleosil® C 18 5 μm×4.6 mm column (Macherey-Nagel)
(§5) On leaving the column, the substrates and products of the enzyme reaction are quantified by absorption at 254 nm. This detection is coupled to an on-line radiochemical detection using a Berthold LB506 detector equipped with a solid scintillation cell of the GT400-U4 type. This makes it possible to specifically follow the incorporation of radioactive methyl groups into the reaction products.
(§6) The unit of enzyme activity for methylation 1 (and also for methylation 2) is defined as the amount of enzyme required to incorporate 1 nmol of methyl group into 4-amino-L-phenylalanine (or into 4-methylamino-L-phenylalanine).
as §1, §2

[4] = Km and Vmax of purified PapM methylases, methylation 1
Procedure: as §3, §4, §5, §6, §1, §2

[5] = Enzymatic screening: simultaneous assay of the two methylation activities of PapM (ratio r); conditions: 7 sequenced clones; experiment in which wild-type ratio was 0.40
From the text: The ratio of the respective rates V1 and V2 of methylation of L-PAPA and of L-MMPAPA is dependent on the kinetic parameters of PapM (Km1 and Vmax1 for L-PAPA, Km2 and Vmax2 for L-MMPAPA), and is also dependent on the respective concentrations S1 and S2 of L-PAPA and of L-MMPAPA, according to the formula: V1/V2=(Vmax1//Km1)[S1]/(Vmax2/Km2)[S2]
Simultaneous measurement of the two rates of methylation V1 and V2 at fixed concentrations of S1 and S2 makes it possible to determine the ratio of the kinetic constants of PapM for L-PAPA and L-MMPAPA. This ratio is independent of the amount of PapM used in the assay. When the selectivity of the mutated PapM enzyme increases for L-PAPA, the ratio V1/V2 should increase and, conversely, this ratio should decrease when the mutated PapM enzyme preferentially methylates L-MMPAPA.
Finally, in order to avoid small variations in Km and to, on the contrary, promote either large variations in Km or modifications in the Vmax values, the concentrations of L-PAPA and L-MMPAPA are fixed at approximately 6 times the Km in order to be under conditions of saturation. Under such conditions, with the wild-type PapM enzyme, the rate of methylation 1 and the rate of methylation 2 are virtually equal.
The simultaneous assaying of the two methylation activities of PapM is described in example 7.1. This assaying of the methylase activities of PapM is carried out in the presence of 1.5 mM L-PAPA, 3 mM L-MMPAPA and […].
The 96-well plates of the library of E. coli clones producing the mutated PapM enzymes, prepared as described in example 3, are thawed at 23° C. Next, 25 μl of mixture A are added to the 200 μl of the culture on LB medium contained in each well. Mixture A is obtained by adding successively (1) 3 ml of 50 mM Bis-Tris-Propane buffer, pH 10, in which have been dissolved 12 mg of L-PAPA, and 71 mg of (DL)-MMPAPA in dihydrochloride form and prepared as described in WO 96/01901-A1, (2) 0.7 ml of 4 mM SAM in water, (3) 0.7 ml of [^14C-Me]-SAM at 25 μCi/ml and 60 mCi/mmol (AMERSHAM), (4) 0.6 ml of 100 mM Bis-Tris-Propane buffer, pH 6.8, and (5) 56 mg of the disodium salt of EDTA. The amounts are given for the preparation of a 5 ml volume of mixture A. The plate is then sealed with an adhesive film, and then incubated at 27° C. for 2 hours. The reaction is stopped with 40 μl of a stop solution. The stop solution (for a volume of 4 ml) is obtained by mixing 2.2 ml of a 24 mg/ml sodium heptanesulfonate solution in water with 1.8 ml of concentrated hydrochloric acid. After centrifugation of the plates at 3 000 g for 5 min, approximately 100 μl of the supernatant of each well are analyzed by HPLC in the system described in example 7.1.
For each well, the respective areas A1 and A2 of the MMPAPA and DMPAPA peaks derived from recording the radiochemical detection are integrated. A ratio r is then calculated in the following way: r=A1/(A1+A2) In the case of the wild-type PapM methylase, r=0.50±0.05.

[6] = purified enzyme, 2 mM SAM, substrate 0.1 to 60 mM

B1: Mutant 49/66: doubly mutated PapM, Thr192 > Ile and Gly249 > Ser, plasmids pVRC718 / pVRC721 (protein, UniProt P72542 1-292, looked up, variant T192I G249S)
4-amino-L-phenylalanine/4-meth …: MTAAAPTLAQALDEATGQLTGAGITADAARADTRLLAAHACQVAPGDLDTCLAGPVPPRFWHYVRRRLTREPAERIVGHAYFMGHRFDLAPGVFVPKPETEEITRDAIARLEALVRRGTTAPLVVDLCAGPGTMAVTLARHVPAARVLGIELSQAAARAARRNARGTGARIVQGDARDAFPELSGTVDLVVINPPYIPIGLRTSAPEVLEHDPPLALWAGEEGLGMIRAMERTAARLLAPGGVLLLEHSSYQLASVPALFRATGRWSHASSRPTCNDGCLTAVRNHTCAPPA
first methylation reaction relative to the second (selectivity) [1]: 7 times | Ratio Km2/Km1 ([2]; Table 5): 2.5 | Ratio Vm1/Vm2 ([2]; Table 5): 3.1 | Vm1 · Km2 / Vm2 · Km1 (ratio of enzyme efficiencies) ([2]; Table 7): 7.58 | Km2 ([3]; Table 7): 22 | Vm2 ([3]; Table 7): 9 100 | Vm2/Km2 (enzyme efficiency, methylation 2) ([3]; Table 7): 410 | Vm2 (MMPAPA) ([3]; purified enzyme, 2 mM SAM): 9 100 nmol/h/mg | Km2 (MMPAPA) [3, 6]: 22 mM | Km1 ([4]; Table 7): 9 | Vm1 ([4]; Table 7): 28 000 | Vm1/Km1 (enzyme efficiency, methylation 1) ([4]; Table 7): 3 110 | Vm1 (PAPA) ([4]; purified enzyme, 2 mM SAM): 28 000 nmol/h/mg | Km1 (PAPA) [4, 6]: 9 mM

B2: Mutant 74D5: PapM variant clone, Met226 > Ile (same substitution as mutant 69) (protein, UniProt P72542 1-292, looked up, variant M226I)
4-amino-L-phenylalanine/4-meth …: MTAAAPTLAQALDEATGQLTGAGITADAARADTRLLAAHACQVAPGDLDTCLAGPVPPRFWHYVRRRLTREPAERIVGHAYFMGHRFDLAPGVFVPKPETEEITRDAIARLEALVRRGTTAPLVVDLCAGPGTMAVTLARHVPAARVLGIELSQAAARAARRNARGTGARIVQGDARDAFPELSGTVDLVVTNPPYIPIGLRTSAPEVLEHDPPLALWAGEEGLGIIRAMERTAARLLAPGGVLLLEHGSYQLASVPALFRATGRWSHASSRPTCNDGCLTAVRNHTCAPPA
Ratio (r redetermined) [5]: 0.52

B3: Mutant 45: PapM variant Thr274 > Ile (protein, UniProt P72542 1-292, looked up, variant T274I)
4-amino-L-phenylalanine/4-meth …: MTAAAPTLAQALDEATGQLTGAGITADAARADTRLLAAHACQVAPGDLDTCLAGPVPPRFWHYVRRRLTREPAERIVGHAYFMGHRFDLAPGVFVPKPETEEITRDAIARLEALVRRGTTAPLVVDLCAGPGTMAVTLARHVPAARVLGIELSQAAARAARRNARGTGARIVQGDARDAFPELSGTVDLVVTNPPYIPIGLRTSAPEVLEHDPPLALWAGEEGLGMIRAMERTAARLLAPGGVLLLEHGSYQLASVPALFRATGRWSHASSRPICNDGCLTAVRNHTCAPPA
Ratio (r redetermined) [5]: 0.52

B4: Mutant 74D4: PapM variant clone, Gly249 > Ser (same substitution as mutant 49) (protein, UniProt P72542 1-292, looked up, variant G249S)
4-amino-L-phenylalanine/4-meth …: MTAAAPTLAQALDEATGQLTGAGITADAARADTRLLAAHACQVAPGDLDTCLAGPVPPRFWHYVRRRLTREPAERIVGHAYFMGHRFDLAPGVFVPKPETEEITRDAIARLEALVRRGTTAPLVVDLCAGPGTMAVTLARHVPAARVLGIELSQAAARAARRNARGTGARIVQGDARDAFPELSGTVDLVVTNPPYIPIGLRTSAPEVLEHDPPLALWAGEEGLGMIRAMERTAARLLAPGGVLLLEHSSYQLASVPALFRATGRWSHASSRPTCNDGCLTAVRNHTCAPPA
Ratio (r redetermined) [5]: 0.63

B5: Mutant 69: PapM variant Met226 > Ile (protein, UniProt P72542 1-292, looked up, variant M226I)
4-amino-L-phenylalanine/4-meth …: MTAAAPTLAQALDEATGQLTGAGITADAARADTRLLAAHACQVAPGDLDTCLAGPVPPRFWHYVRRRLTREPAERIVGHAYFMGHRFDLAPGVFVPKPETEEITRDAIARLEALVRRGTTAPLVVDLCAGPGTMAVTLARHVPAARVLGIELSQAAARAARRNARGTGARIVQGDARDAFPELSGTVDLVVTNPPYIPIGLRTSAPEVLEHDPPLALWAGEEGLGIIRAMERTAARLLAPGGVLLLEHGSYQLASVPALFRATGRWSHASSRPTCNDGCLTAVRNHTCAPPA
Ratio (r redetermined) [5]: 0.51

B6: Mutant 52: PapM variant Gly249 > Asp (protein, UniProt P72542 1-292, looked up, variant G249D)
4-amino-L-phenylalanine/4-meth …: MTAAAPTLAQALDEATGQLTGAGITADAARADTRLLAAHACQVAPGDLDTCLAGPVPPRFWHYVRRRLTREPAERIVGHAYFMGHRFDLAPGVFVPKPETEEITRDAIARLEALVRRGTTAPLVVDLCAGPGTMAVTLARHVPAARVLGIELSQAAARAARRNARGTGARIVQGDARDAFPELSGTVDLVVTNPPYIPIGLRTSAPEVLEHDPPLALWAGEEGLGMIRAMERTAARLLAPGGVLLLEHDSYQLASVPALFRATGRWSHASSRPTCNDGCLTAVRNHTCAPPA
Ratio (r redetermined) [5]: 0.66

Reference: patent US7604970B2, “Variants of the PapM polypeptide of bacteria of the Streptomyces genus” (Aventis Pharma S.A., priority 2002, dated 2009)
